Where two headings read alike, the source gives them in different places.
What was measured:
[1] = molecular target: MED25 ACID (Homo sapiens) (UniProt Q71SY5); conditions: cited from earlier work
[2] = molecular target: His-tagged MED25 ACID (aa 389–543) (human) (UniProt Q71SY5); assay: BLI; His-MED25 ACID (1 µM) captured on Ni-NTA biosensors, NS1 proteins as analytes in 2-fold dilutions; 20 mM Tris pH 8.0, 200 mM NaCl, 1 mM TCEP, 0.05% Tween, 25°C; global fit, 1:1 model for NS1, 2:1 heterogeneous model for NS1Δα3 and the point mutants
[3] = molecular target: MED25 ACID (Homo sapiens) (UniProt Q71SY5); conditions: cited from earlier work; remark: listed apart in the source
[4] = molecular target: MED25 ACID (Homo sapiens) (UniProt Q71SY5); conditions: cited from earlier work; remark: listed apart in the source
[5] = molecular target: MED25 ACID (Homo sapiens) (UniProt Q71SY5); conditions: cited from earlier work; remark: listed apart in the source
[6] = molecular target: MED25 ACID (Homo sapiens) (UniProt Q71SY5); conditions: cited from earlier work; remark: listed apart in the source
[7] = molecular target: MED25 ACID (Homo sapiens) (UniProt Q71SY5); conditions: cited from earlier work; remark: listed apart in the source
[8] = molecular target: MED25 ACID (Homo sapiens) (UniProt Q71SY5); conditions: cited from earlier work; remark: listed apart in the source
[9] = molecular target: MED25 ACID (H1 interface) (Homo sapiens) (UniProt Q71SY5); assay: NMR; conditions: cited from earlier work
[10] = molecular target: MED25 ACID (Homo sapiens) (UniProt Q71SY5); assay: NMR; conditions: cited from earlier work
[11] = molecular target: MED25 ACID (Homo sapiens) (UniProt Q71SY5); conditions: cited from earlier work; remark: listed apart in the source
[12] = molecular target: MED25 ACID (Homo sapiens) (UniProt Q71SY5); assay: ITC; conditions: cited from earlier work

Sequence of His-tagged MED25 ACID (aa 389–543) (human) (Q71SY5 389-543): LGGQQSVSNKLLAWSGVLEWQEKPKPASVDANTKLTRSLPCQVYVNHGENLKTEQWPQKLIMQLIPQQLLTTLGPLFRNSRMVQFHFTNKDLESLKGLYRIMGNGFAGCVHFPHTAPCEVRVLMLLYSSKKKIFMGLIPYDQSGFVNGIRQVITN
Sequence of MED25 ACID (Homo sapiens) (Q71SY5 389-543): as above
Sequence of MED25 ACID (H1 interface) (Homo sapiens) (Q71SY5 389-543): as above
Sequence of p53 TAD2 (P04637 38-61): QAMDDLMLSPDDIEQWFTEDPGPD
Sequence of ERM TAD (P41161 38-68): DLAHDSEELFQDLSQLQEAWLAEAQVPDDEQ
Sequence of ATF6α TAD (P18850 40-66): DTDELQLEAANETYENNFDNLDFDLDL
Sequence of p53 TAD (P04637 1-61): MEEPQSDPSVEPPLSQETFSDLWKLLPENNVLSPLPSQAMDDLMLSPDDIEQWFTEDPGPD

| Substance | Kd1 (binding mode 1) [2] [nM] | Kd2 (binding mode 2) [2] [nM] | ka1 (binding mode 1) [2] [M⁻¹ s⁻¹] | ka2 (binding mode 2) [2] [M⁻¹ s⁻¹] | kdis1 (binding mode 1) [2] [s⁻¹] | kdis2 (binding mode 2) [2] [s⁻¹] | other results |
| --- | --- | --- | --- | --- | --- | --- | --- |
| p53 TAD2 (from UniProt P04637) |  |  |  |  |  |  | Kd [1]: 8100 nM |
| RSV NS1, full-length wild type (aa 1–139) (natural protein) |  |  |  |  |  |  | Kd [2]: 16.5 nM; koff [2]: 0.002 s⁻¹; kon [2]: 120000 M⁻¹ s⁻¹ |
| VP16 TAD1 (from UniProt P06492) |  |  |  |  |  |  | Kd [3]: 1600 nM; Kd [4]: 1600 nM |
| NS1Δα3 (NS1 aa 1–116) (domain or fragment) | 615 | 850 | 80000 | 3000 | 0.05 | 0.0024 |  |
| NS1 F56A (natural protein) | 333 | 72 | 130000 | 20000 | 0.043 | 0.0014 |  |
| NS1 M122A (natural protein) | 42.3 | 9.4 | 210000 | 120000 | 0.009 | 0.0011 |  |
| ERM TAD (from UniProt P41161) |  |  |  |  |  |  | Kd [5]: 600 nM |
| NS1 K112A (natural protein) | 68.1 | 7.5 | 160000 | 140000 | 0.011 | 0.0011 |  |
| NS1 E110A (natural protein) | 1630 | 1320 | 120000 | 3000 | 0.19 | 0.0034 |  |
| VP16 TAD (from UniProt P06492) |  |  |  |  |  |  | Kd [6]: 50 nM |
| NS1 I54A (natural protein) | 71.2 | 28.3 | 200000 | 80000 | 0.014 | 0.0023 |  |
| ATF6α TAD (from UniProt P18850) |  |  |  |  |  |  | Kd [7]: 500 nM |
| p53 TAD (from UniProt P04637) |  |  |  |  |  |  | Kd [8]: 800 nM |
| NS1 α3 peptide (from UniProt P0DOE8) |  |  |  |  |  |  | Kd [9]: 500000 nM; Kd [10]: 10000 nM |
| NS1 (from UniProt P0DOE8) |  |  |  |  |  |  | Kd [11]: 20 nM; Kd [12]: 15 nM |

Source: PMC12431651
